The values that follow come from publication PMC12607630 (2025).

Holding throughout (test): BLI
The target of one assay is 6×His-ZapC^K94D (Escherichia coli, UniProt P75862 1-180, K94D).
In another assay the target is 6×His-ZapC^F30D (Escherichia coli, UniProt P75862 1-180, F30D).
For the next assay, the target named is T1, SUMO-FtsZ^370-383 (Escherichia coli, UniProt P0A9A6 370-383).
T1 chain: DYLDIPAFLRKQAD

A further assay deals with T2, SUMO-FtsZ^316-370 (Escherichia coli, UniProt P0A9A6 316-370).
T2 chain: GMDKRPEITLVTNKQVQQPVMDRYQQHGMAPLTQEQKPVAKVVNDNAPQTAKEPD

B1: FtsZ (wild-type, untagged) (natural protein)
chain: MFEPMELTNDAVIKVIGVGGGGGNAVEHMVRERIEGVEFFAVNTDAQALRKTAVGQTIQIGSGITKGLGAGANPEVGRNAADEDRDALRAALEGADMVFIAAGMGGGTGTGAAPVVAEVAKDLGILTVAVVTKPFNFEGKKRMAFAEQGITELSKHVDSLITIPNDKLLKVLGRGISLLDAFGAANDVLKGAVQGIAELITRPGLMNVDFADVRTVMSEMGYAMMGSGVASGEDRAEEAAEMAISSPLLEDIDLSGARGVLVNITAGFDLRLDEFETVGNTIRAFASDNATVVIGTSLDPDMNDELRVTVVATGIGMDKRPEITLVTNKQVQQPVMDRYQQHGMAPLTQEQKPVAKVVNDNAPQTAKEPDYLDIPAFLRKQAD
For the molecule B1, the values for the Kd with 6×His-ZapC^K94D and with 6×His-ZapC^F30D were 2.1 µM and 2.97 µM, respectively.

B2: ZapC (untagged) (natural protein)
chain: not shown
For B2, the equilibrium dissociation constant (Kd) with SUMO-FtsZ^370-383 came out at 11.4 µM; with SUMO-FtsZ^316-370, 50.7 µM.
